# Data reported in patent US20020115169A1.
# Target: HIV-1 Rev protein (recombinant, expressed in E. coli, refolded) (HIV-1)
# Test: cell-based or functional assay
substance,measurement,value
"nucleolar protein B23.1 (recombinant, produced in E. coli) (from UniProt P13084 1-292)","% inhibition of temperature-dependent Rev aggregation (turbidity at 360 nm, 20 minute time point) versus molar ratio of B23 to Rev (mol B23 per mol Rev)",1
